Like-named read-outs stand apart in the source and are kept apart here. Where no end group is shown, it is not given here. The star is where a group is joined. 5FAM = O=C1OC2(c3ccc(O)cc3Oc3cc(O)ccc32)c2ccc(C(=O)*)cc21
B1: CTxA_(I124-F132) peptide, 5-FAM labelled, wild-type sequence (peptide)
peptide: IYGWYRVHF
modifications: also: 5-FAM labelled, position not given here

Columns and labels:
Experiment in all cases: […]
His6-IRE1αLD [1] = biological target: T1, His6-IRE1αLD (human, UniProt O75460 24-443)
T1 sequence: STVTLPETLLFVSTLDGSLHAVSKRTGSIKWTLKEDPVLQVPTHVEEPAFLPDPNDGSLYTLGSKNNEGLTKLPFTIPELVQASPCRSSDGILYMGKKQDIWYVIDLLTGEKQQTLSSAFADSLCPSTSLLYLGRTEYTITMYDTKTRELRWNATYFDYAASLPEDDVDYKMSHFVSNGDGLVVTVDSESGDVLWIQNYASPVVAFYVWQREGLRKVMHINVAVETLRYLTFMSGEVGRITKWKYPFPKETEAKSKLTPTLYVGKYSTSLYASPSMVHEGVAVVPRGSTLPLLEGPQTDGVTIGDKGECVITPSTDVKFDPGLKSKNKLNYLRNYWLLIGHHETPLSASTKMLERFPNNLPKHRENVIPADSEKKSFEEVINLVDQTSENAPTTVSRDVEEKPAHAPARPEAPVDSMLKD

[2] = biological target: B1
His6-IRE1αLD [3] = biological target: T1, His6-IRE1αLD; remark: listed apart in the source

Q: Does YWLLIGHHETPL [unlabeled IRE1α_(Y358-L369) peptide, wild-type sequence] bind (His6-IRE1αLD [1])?
A: binds

Q: What about the “fold weaker affinity than either peptide alone binding to IRE1αLD” value [2] of the same binder?
A: ≥ 10 fold

Q: Does B1 bind (His6-IRE1αLD [3])?
A: binds

Q: With 5FAM-YLAWYQQKP [human IgG light chain variable domain (VL) peptide, 5-FAM labelled] as the binder, how does the Kd (His6-IRE1αLD [3]) read?
A: 219 mM

Q: With 5FAM-YWLLIGHHETPL [IRE1α_(Y358-L369) peptide, 5-FAM labelled, wild-type sequence] as the binder, how does the Kd (His6-IRE1αLD [3]) read?
A: 0.24 mM

— paper PMC10996581 (The Journal of Cell Biology, 2024)
